Test results published in patent US20240279601A1, “METHODS OF GENERATING SACRAL NEURAL CREST LINEAGES AND USES THEREOF” (MEMORIAL SLOAN-KETTERING CANCER CENTER, priority 2021, published 2024).
Ends that are not written are not given here.

Columns and labels:
hPSCs [1] = test: HOX and NC gene expression (qRT-PCR) during neural crest differentiation of hPSCs; type: cell-based, human; conditions: for expression of HOX regulatory genes (CDX1, CDX2, CDX4): combined treatment with CHIR99021 and FGF2; for expression of posterior genes HoxB7, HoxC9, HoxA10 and CDX4: different concentrations of FGF2 and CHIR99021 together
Experimental: NC differentiation. The basic NC differentiation protocols used are based on previous works (Fattahi et al., Nature 531, 105-109, 2016; Tchieu et al., Cell Stem Cell 21, 399-410 e397, 2017). Briefly, matrigel (Thermo Fisher, A1413201) was diluted at 1:100 ratio in DMEMF-12 (Thermo Fisher, 21331020) and plates were coated with the diluted matrigel overnight at 4° C. For inducing differentiation, hESCs or iPSCs were dissociated at 70%-80% confluence using EDTA dissociation buffer and replated as a single cell suspension on matrigel-coated 24-well plates at a density of 100K cells/cm^2 in E6 medium containing 10 μM ROCK-inhibitor (Y-27632; R&D, 1254). The cells were kept in E6 medium (Thermo Fisher, A1516401)+Y-27632 overnight. The next day, the medium was switched to NC induction medium. For cranial differentiation, the cells were kept in E6 medium containing 10 μM SB431542 (R&D, 1614), […] (R&D, 314-BP), and 0.6 μM CHIR (R&D, 4423) for the first 2 days and then switched to E6 medium containing 10 μM SB431542 and 1.5 μM CHIR for 10 days. For vagal NC the same conditions were used with an additional 1 μM RA (Sigma, R2625) added to the medium starting from D6. To establish the sacral NC protocol, the cranial NC protocol was modified with varying concentrations of FGF2 (R&D, 233-FB/CF), CHIR and GDF11 (Peprotech, 120-11), added at different time points as detailed in the results section. For the generation of melanocytes, 100 nM EDN3 (American Peptide company, 88-5-10B) was added to the sacral NC protocol from day 14 to day 20. In experiments testing the RA hypothesis, the sacral NC protocol was modified using either 1 μM RA (Sigma, R2625) or 100 nM AGN (Tocris, 5758) as detailed in the experimental design section.
RNA extraction and RT-qPCR. RNA was prepared from samples collected with the Zymo Direct-zol Kit and extracted using the Direct-zol RNA MiniPrep kit. cDNA was generated using the iScript Reverse Transcription Supermix for RT-qPCR. For qPCR analysis, primers were obtained from QIAGEN or IDT and the reactions were performed following manufacturers' instructions using SsoFast EvaGreen® Supermix. The Assays were run on BioRad CFX384 Real-Time PCR machine. Results were normalized to GAPDH housekeeping genes.

rodent GSK3β homologs = conditions: against rodent GSK3β homologs; cited from earlier work
sacral NC = test: Migration (surface area) of NC cells in response to growth factors; type: cell-based, human
Experimental: (§1) Fluorescence image of cells and their migration at different time points: 0 hour (upper panel), 24 hours (middle panel), 48 hours (bottom panel). Scale bars, 50 pm. […] Scale bars, 500 pm. […] N=6 biological replicates. FIGS. 32D and 32E show surface area VNC or SNC cells in response to different growth factors. 1 equates to standard concentration (100 nM and 25 ng/ml for EDN3 and GDN F respectively), 0.1 equates to 1/10 of standard concentration and 10 equates to 10 times higher than the standard concentration. Surface area is quantified by ImageJ. N=4 biological replicates. […] The images are taken at different time points after transplantation: 1 Hour (left panel), 2 weeks (middle panel), 4 weeks (right panel). […] Data are present as Mean±SEM; ns: not significant P>0.05; *P≤0.05; **P≤0.01; ***P≤0.001; ****P≤0.0001
(§2) Migration and co-differentiation assays. Transwell assay: to test capacity of NC cells for invasion, we used the CytoSelect 24-Well Cell Invasion Assay, Basement (Cell Biolabs). We plated 200K cells per chamber in neural spheroids medium and added 500 μL of neural spheroid medium containing 10% fetal bovine serum to the lower well of the invasion plate and incubated the plate for 48 h at 37° C. in 5% CO2 atmosphere. Cells that crossed through the invasion chamber were stained with the Cell Stain Solution provided with the kit (Cell Biolabs) and examined under the microscope. The stained cells were then lysed and measured by plate reader for quantification. Migration assay: vagal or sacral neural spheroids were generated as described in enteric neuron differentiation section. Those spheroids were plated down on a 2D PO/LM/FN coated plated for assessing surface migration or embedded in […]) Matrigel for assessing migration within a Matrigel pellet. Pictures were taken at sequential time points post plating to trace the migration process. Scratch assay: vagal or sacral NC cells were plated on PO/LM/FN coated 24 well plates at density of 100×10^3 cells per cm^2. After 24 h, the culture lawn is scratched manually using a pipette tip. Live images are taken at different time points after the scratch was made to trace the migration.

vagal NC = test: as above; type: cell-based, human; conditions: 0.1x, 1x, 10x of standard concentration (100 nM EDN3, 25 ng/ml GDNF)
Experimental: as §1, §2

hPSCs [2] = test: RNA-seq and ATAC-seq of NC differentiation with or without GDF11; type: cell-based, human
Experimental: RNA sequencing (RNA-seq). Cells were disassociated with Accutase for 20 minutes at 37° C. The cells were collected into 15 mL falcon tubes and DMEMF-12 containing 2% FBS was added to neutralize the enzyme. The cells were spun down and washed with PBS twice. The cells were spun down again in 1.5 mL Eppendorf tube and resuspended in 500 μL TRIzol (ThermoFisher catalog #15596018) and stored at −80° C. When all data points were collected, the samples underwent RNA extraction and RNA-seq as performed by the IGO core at MSKCC. Briefly, phase separation in cells lysed in 1 mL TRIzol Reagent was induced with 200 μL chloroform and RNA was extracted from the aqueous phase using the miRNeasy Mini Kit (Qiagen catalog #217004) on the QIAcube Connect (Qiagen) according to the manufacturer's protocol with 350 μL input. Samples were eluted in 15 μL RNase-free water. After RiboGreen quantification and quality control by Agilent BioAnalyzer, 500 ng of total RNA with RIN values of 9.6-10 underwent polyA selection and TruSeq library preparation according to instructions provided by Illumina (TruSeq Stranded mRNA LT Kit, catalog #RS-122-2102), with 8 cycles of PCR. Samples were barcoded and run on a HiSeq 4000 in a PE100 run, using the HiSeq 3000/4000 SBS Kit (Illumina). An average of 53 million paired reads was generated per sample and the percent of mRNA bases averaged 85%.
RNA-seq bioinformatics. STAR aligner (Dobin et al., Bioinformatics 29, 15-21, 2013) was used to map reads to the human genome (GRCh37). The 2-pass mapping method (Engström et al., Nature methods 10, 1185-1191, 2013) was used, in which the reads are mapped twice. SAM files were processed and converted to BAM format using PICARD tools and then HTseq was used to compute the expression count matrix from the mapped reads. DESeq2 (Love et al., Genome Biology 15, 550, 2014) was used to normalize the raw counts (Median of Ratios method) and perform differential gene expression analysis. Data are presented on a gene-by-gene basis as normalized counts or after carrying out a variance-stabilizing transformation followed by PCA analysis.
ATAC sequencing (ATAC-seq). Cells were disassociated with Accutase for 20 minutes at 37° C. The cells were collected into 15 mL falcon tubes and DMEMF-12 containing 2% FBS was added to neutralize the enzyme. The cells were spun down and washed with PBS twice. The cells were spun again in a 1.5 mL Eppendorf tube and resuspended in 500 μL stem cell banker cell freezing buffer and stored at liquid nitrogen tank. When all data points were collected, the samples were sent to IGO core. ATAC-seq was performed by IGO core at MSKCC. Profiling of chromatin was performed by ATAC-Seq as described in Buenrostro et al., Nat Methods 10, 1213-1218, 2013. Briefly, 50,000 viably frozen neural crest cells were washed in cold PBS and lysed. The transposition reaction was carried out using TDEI Tagment DNA Enzyme (Illumina catalog #20034198) incubated at 37° C. for 30 minutes. The DNA was cleaned with the MinElute PCR Purification Kit (QIAGEN catalog #28004) and material was amplified for 5 cycles using NEBNext High-Fidelity 2×PCR Master Mix (New England Biolabs catalog #M0541L). After evaluation by real-time PCR, 7-10 additional PCR cycles were done. The final product was cleaned by aMPure XP beads (Beckman Coulter catalog #A63882) at a 1× ratio, and size selection was performed at a 0.5× ratio. […] An average of 42 million paired reads were generated per sample. […]

[3] = low to medium level of EDN3, GDNF
[4] = early exposure to GDF11 in combination with FGF2 and CHIR
[5] = RNA seq, day 3, following GDF11 treatment

In the case of `Cc1ccc(C2=CCC(C)(C)c3ccc(C#Cc4ccc(C(=O)O)cc4)cc32)cc1` [AGN, reference compound], the HOXC9 expression (hPSCs [1]; RA 1 μM or AGN 100 nM added to NC protocol) is reported as “increased”, the “sacral HOX gene expression” value (hPSCs [1]; RA inhibition in GDF11 treated cultures) is reported as “minimal impact” and the HOXC10 expression (hPSCs [1]; RA inhibition in trunk NC (BMP condition)) is reported as “promoted”.

In the case of `Cc1c[nH]c(-c2cnc(NCCNc3ccc(C#N)cn3)nc2-c2ccc(Cl)cc2Cl)n1` [CHIR99021, 6-(2-(4-(2,4-dichlorophenyl)-5-(4-methyl-1H-imidazol-2-yl)pyrimidin-2-ylamino)ethylamino)nicotinonitrile, reference compound], the “expression of HOX regulatory genes (CDX1, CDX2, CDX4)” value (hPSCs [1]) is listed as “induced expression”, the “expression of posterior genes HoxB7, HoxC9, HoxA10 and CDX4” value (hPSCs [1]) is listed as “induced the expression” and the IC50 values (rodent GSK3β homologs) is listed as “nanomolar”.

In the case of “EDN3: growth factor EDN3 (American Peptide company, 88-5-10B) (CTCFTYKDKECVYYCHLDIIW; ends and bridges not checked; cysteine pairing not given here; UniProt P14138 97-117, looked up)”, the “sacral NC migration” value (sacral NC; high EDN3 concentration) is reported as “suppressed”, the “sacral NC migration” value (sacral NC; [3]) is reported as “promoted” and the “vagal NC migration” value (vagal NC) is reported as “highly promoted”.

In the case of “FGF2: activator of FGF signaling (R&D, 233-FB/CF)”, the “expression of HOX regulatory genes (CDX1, CDX2, CDX4)” value (hPSCs [1]) is reported as “induced expression” and the “expression of posterior genes HoxB7, HoxC9, HoxA10 and CDX4” value (hPSCs [1]) is reported as “induced the expression”.

B1: GDNF: glial cell line derived neurotrophic factor (Peprotech, 450-10) (protein, UniProt P39905 78-211, looked up)
Glial cell line-derived …: SPDKQMAVLPRRERNRQAAAANPENSRGKGRRGQRGKNRGCVLTAIHLNVTDLGLGYETKEELIFRYCSGSCDAAETTYDKILKNLSRNRRLVSDKVGQACCRPIAFDDDLSFLDDNLVYHILRKHSAKRCGCI
In the case of B1, the “sacral NC migration” value (sacral NC; [3]) is reported as “promoted” and the “vagal NC migration” value (vagal NC) is reported as “barely affected”.

B2: GDF11: growth differentiation factor 11 or bone morphogenetic protein 11, a TGFβ family protein encoded by the GDF11 gene (protein, UniProt O95390 299-407, looked up)
Growth/differentiation factor …: NLGLDCDEHSSESRCCRYPLTVDFEAFGWDWIIAPKRYKANYCSGQCEYMFMQKYPHTHLVQQANPRGSAGPCCTPTKMSPINMLYFNDKQQIIYGKIPGMVVDRCGCS
With B2 the “transition from TNCs to SNCs” value (hPSCs [1]) was “promoted the transition”, the “expression of posterior Hox genes by time of addition” value (hPSCs [1]; GDF11 added from day 0 to day 3 versus later time points) was “higher expression” and the “expression of stem cell-related factors SOX2 and MYC” value (hPSCs [1]; GDF11 treated cultures) was “increased expression”. For the same molecule, the “expression of the more anterior HOX genes (HOX4-9)” value (hPSCs [1]; [4]) was “without affecting”, the “sacral HOX gene expression (HOX10-13)” value (hPSCs [1]; [4]) was “dramatic and selective increase” and the “levels of H3K4 methyltransferases such as SMYD2” value (hPSCs [2]; [5]) was “decreased levels”. The “levels of H3K27Me3 demethylases JMJD6 and KDM6B” value (hPSCs [2]; [5]) was “increased levels”, the “gene expression of GRHL1, GRHL2 and GRHL3” value (hPSCs [2]; following GDF11 exposure) was “significant decrease” and the “chromatin accessibility of GRHL factors” value (hPSCs [2]; following GDF11 exposure, ATAC-seq) was “significant decrease”. The “expression of RA signaling genes CRABP2, CYP26A1 and RBP4” value (hPSCs [2]; following GDF11 treatment) was “reduced”.
